# Residue numbers refer to the chain shown, from its start.
# T1: six-transmembrane epithelial antigen of prostate-2 (STEAP2) (human, UniProt Q8NFT2 1-490)
# T1 construct: Endogenous STEAP2 on prostate cancer cell lines (LNCaP, C4-2, 22RV1); also called STEAP2 receptor
# T1 sequence: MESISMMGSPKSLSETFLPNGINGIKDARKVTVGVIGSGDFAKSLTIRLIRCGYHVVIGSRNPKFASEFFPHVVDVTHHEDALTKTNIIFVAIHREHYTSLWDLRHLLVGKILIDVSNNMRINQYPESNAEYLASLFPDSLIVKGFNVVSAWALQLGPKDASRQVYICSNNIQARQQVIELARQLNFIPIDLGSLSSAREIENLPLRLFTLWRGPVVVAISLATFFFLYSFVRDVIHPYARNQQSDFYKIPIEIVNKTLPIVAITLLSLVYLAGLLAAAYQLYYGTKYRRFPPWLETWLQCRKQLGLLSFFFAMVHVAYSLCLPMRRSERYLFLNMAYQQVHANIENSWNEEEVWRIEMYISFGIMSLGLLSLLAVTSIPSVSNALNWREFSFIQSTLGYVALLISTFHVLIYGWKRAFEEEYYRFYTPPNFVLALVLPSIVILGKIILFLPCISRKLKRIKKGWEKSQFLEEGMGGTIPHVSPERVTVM
# B1: 40A3-LO14 (IgG1-TM) (antibody, V domains shown)
# VH: QVQLQQSGPGLVKPSQTLSLTCAISGDSVSRNSAVWNWIRQSPSRGLEWLGRTYYRSKWYNDYAPSVKSRITINPDTSKNQFSLQLNSVTPEDTAVYYCARGLRQNQFYYYMDVWGKGTTVTVSS
# VL: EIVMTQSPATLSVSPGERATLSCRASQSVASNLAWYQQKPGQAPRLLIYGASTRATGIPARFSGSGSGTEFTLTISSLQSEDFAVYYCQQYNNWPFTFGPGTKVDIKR
# notes: Human IgG1 kappa with reduced effector function (IgG1-TM); also called 40A3GL-LO14; 40A3-LO14 hIgG-TM
# B2: [177Lu]-STEAP2 (40A3-LO14) (antibody, human IgG1, kappa, V domains shown)
# VH: B1 VH
# VL: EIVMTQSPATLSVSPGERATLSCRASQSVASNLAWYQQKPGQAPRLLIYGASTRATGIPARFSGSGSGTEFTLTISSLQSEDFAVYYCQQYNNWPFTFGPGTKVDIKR
# modifications: 177Lu complex of the DOTA chelate of Compound C (PEG3 linker) conjugated to the antibody through its tetrafluorophenyl ester; sites and chain not stated; typical chelate to antibody ratios 5-5.5
# notes: also called [177Lu]-Compound C-anti-STEAP2 conjugate; [177Lu]-DOTA-anti-STEAP2 conjugate
# B3: [177Lu]-STEAP2 (40A3-LO11) (antibody, human IgG1, kappa, V domains shown)
# VH: B1 VH with R104L
# VL: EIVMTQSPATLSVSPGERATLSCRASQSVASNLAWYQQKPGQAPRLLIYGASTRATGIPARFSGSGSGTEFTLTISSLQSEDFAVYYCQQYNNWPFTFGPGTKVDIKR
# modifications: 177Lu complex of the DOTA chelate of Compound C (PEG3 linker) conjugated to the antibody; sites, chain and ratio not stated for this antibody
# notes: Radioimmunoconjugate of 40A3-LO11; also called [177Lu]-Compound C-anti-STEAP2 conjugate
# B4: 40A3-LO11 (IgG1-TM) (antibody, V domains shown)
# VH: B1 VH with R104L
# VL: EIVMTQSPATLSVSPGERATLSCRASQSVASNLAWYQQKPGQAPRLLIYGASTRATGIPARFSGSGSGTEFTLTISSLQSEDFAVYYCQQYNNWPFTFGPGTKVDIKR
# How the values were obtained:
# [1] = target: T1, six-transmembrane epithelial antigen of …; test: cell binding on LNCaP cells
# [2] = target: T1, six-transmembrane epithelial antigen of …; test: cell-based binding on LNCaP cells
# [3] = target: T1, six-transmembrane epithelial antigen of …; test: radioligand saturation binding on C4-2 cells, single-site fit of specific binding
# Procedure: (§1) The purpose of this assay was to ensure that the radioimmunoconjugates maintained the binding characteristics of the native antibody in STEAP2 expressing cell lines including C4-2, 22RV1 and LNCaP. One day prior to the experiment, cells (1.5-2×10⁵) were seeded in 48-well microplates in 500 μL supplemented medium. At the start of the assay, cells were washed with PBS once and then treated with either Binding Buffer or 5 μM cold antibody [total binding (TB) and non-specific binding (NSB) respectively]. Plates were incubated at 4° C. for about one hour with mild shaking. Following incubation, both […] and NSB cells were treated with increasing concentrations of [¹⁷⁷Lu]-STEAP2 (40A3-LO11) or [¹⁷⁷Lu]-STEAP2 (40A3-LO14) (0.098 nM to 50 nM) and were incubated at 4° C. for about two hours with mild shaking.
# (§2) Following incubation, the cells were washed twice with PBS and were then lysed with 1% Triton-X-100. The lysates were transferred to gamma counting tubes and run along with the standard of [¹⁷⁷Lu]-STEAP2 (40A3-LO11) or [¹⁷⁷Lu]-STEAP2 (40A3-LO14) on the Wizard 1470 gamma counter to determine the amount of radioactivity in counts per minute (CPM) for each lysate. The remaining lysate from each well (25 μL) was used for analyzing the protein content using a standard protein quantification assay.
# [4] = target: T1, six-transmembrane epithelial antigen of …; test: radioligand saturation binding on LNCaP cells, single-site fit of specific binding
# Procedure: as §1, §2
# [5] = target: T1, six-transmembrane epithelial antigen of …; test: saturation radioligand binding on 22RV1 cells (4 °C); specific = total minus nonspecific binding in the presence of excess unlabeled antibody; single-site fit
# Procedure: as §1, §2
# [6] = target: T1, six-transmembrane epithelial antigen of …; test: radioligand saturation binding on 22RV1 cells, single-site fit of specific binding
# Procedure: as §1, §2
# [7] = target: T1, six-transmembrane epithelial antigen of …; test: saturation radioligand binding on C4-2 cells (4 °C); specific = total minus nonspecific binding in the presence of excess unlabeled antibody; single-site fit
# Procedure: as §1, §2
# [8] = target: T1, six-transmembrane epithelial antigen of …; test: saturation radioligand binding on LNCaP cells (4 °C); specific = total minus nonspecific binding in the presence of excess unlabeled antibody; single-site fit
# Procedure: as §1, §2
Binder,EC50 [1],fold improvement in binding relative to 40A3-LO7 [2],Kd [3],Kd [4],Kd [5],Kd [6],Kd [7],Kd [8]
B1,1.67 nM,26 fold,,,,,,
B2,,,~2.8 nM,~0.79 nM,3.26 nM,~3.2 nM,2.82 nM,
B3,,,~6.9 nM,~1.2 nM,6.77 nM,~6.7 nM,6.58 nM,1.24 nM
B4,2.38 nM,,,,,,,

# Reference: patent US20240350682A1 (FUSION PHARMACEUTICALS, published 2024)
